Target: T1, OB-RY986F (Homo sapiens, UniProt P48357, Y986F)
T1 construct: cells transfected with the full-length OB-R constructs; expressed in transfected cells; host or cells: COS-7
T1 sequence (P48357 22-1165 Y986F): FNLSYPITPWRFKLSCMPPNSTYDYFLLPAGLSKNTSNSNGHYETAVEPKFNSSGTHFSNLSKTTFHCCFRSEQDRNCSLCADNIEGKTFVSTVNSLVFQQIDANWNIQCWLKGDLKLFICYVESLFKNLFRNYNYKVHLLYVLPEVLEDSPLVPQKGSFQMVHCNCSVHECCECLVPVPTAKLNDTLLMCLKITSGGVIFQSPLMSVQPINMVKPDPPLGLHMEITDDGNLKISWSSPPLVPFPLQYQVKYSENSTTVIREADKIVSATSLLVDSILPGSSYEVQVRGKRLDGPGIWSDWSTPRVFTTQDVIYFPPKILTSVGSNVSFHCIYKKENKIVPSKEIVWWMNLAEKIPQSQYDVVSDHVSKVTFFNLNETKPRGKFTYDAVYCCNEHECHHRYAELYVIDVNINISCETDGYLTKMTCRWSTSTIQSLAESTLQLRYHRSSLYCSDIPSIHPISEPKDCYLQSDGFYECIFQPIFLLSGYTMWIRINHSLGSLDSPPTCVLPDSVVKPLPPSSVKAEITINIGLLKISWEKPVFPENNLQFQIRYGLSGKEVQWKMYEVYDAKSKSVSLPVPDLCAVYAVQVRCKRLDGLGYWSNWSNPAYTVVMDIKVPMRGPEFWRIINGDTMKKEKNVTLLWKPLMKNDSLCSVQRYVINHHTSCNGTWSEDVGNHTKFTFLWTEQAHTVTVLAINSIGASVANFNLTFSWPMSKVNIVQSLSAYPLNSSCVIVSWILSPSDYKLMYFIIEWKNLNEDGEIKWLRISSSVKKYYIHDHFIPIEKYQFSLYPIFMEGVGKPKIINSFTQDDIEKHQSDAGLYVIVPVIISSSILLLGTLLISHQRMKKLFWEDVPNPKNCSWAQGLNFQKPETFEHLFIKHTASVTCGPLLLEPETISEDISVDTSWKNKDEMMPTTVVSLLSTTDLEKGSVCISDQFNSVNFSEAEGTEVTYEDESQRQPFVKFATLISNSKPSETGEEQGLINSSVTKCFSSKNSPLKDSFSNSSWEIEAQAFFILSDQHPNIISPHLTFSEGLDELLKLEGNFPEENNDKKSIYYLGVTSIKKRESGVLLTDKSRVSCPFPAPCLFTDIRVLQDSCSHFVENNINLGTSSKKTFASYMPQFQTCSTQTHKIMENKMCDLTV
Assay: Luciferase reporter gene assay (3(G3)-Cy6-LUC), leptin stimulation of COS cells expressing mutant OB-RY986F
Type: cell-based
Conditions: mutant receptor OB-RY986F, 100 ng/ml leptin for 24 hours
Protocol: The cytoplasmic domain and full-length human OB-R was cloned by PCR using human fetal liver and adipocyte cDNA (Clontech) and cloned into the expression vectors pCMX and pMT21. Chimeric receptors were constructed by fusing the extracellular domain and transmembrane domain of TrkC (amino acids 1 to 458) to the cytoplasmic domain of OB-R (amino acids 865-1165). A triple myc epitope tag was added at the C-terminus of all OB-R constructs (18). Truncation and point mutant constructs were generated by PCR and the sequences of all constructs were verified. Expression constructs were transfected into COS-7 cells using lipofectamine (GIBCO-BRL); 36-48 hours after transfection, cells were starved for either 2 hour,s for chimeric receptors or overnight for full-length receptors prior to stimulation.
Expression constructs (1 μg) for OB-R, OB-RY1141F, OB-RY986F, OB-RY1078, 1079F, and OB-RY986, 1141F were co-transfected with 1 μg of 3(G3)-Cy6-LUC and 0.1 μg of pCMX.LacZ into COS-7 cells (6-well dishes) using lipofectamine. The day after transfection, media was changed to serum-free OptiMEM (GIBCO-BRL) and then treated with 100 ng/ml murine leptin (PeproTech) or human leptin (R&D Systems) for 24 hours. […] Luciferase and β-galactosidase activities were measured in cell lysates (30) and luciferase activity was normalized to β-galactosidase activity to control for transfection differences. […]

increase in luciferase activity: 20 fold
Substance: leptin: the product of the obese gene, secreted by adipocytes; ligand of OB-R
